No end group written: not given here.
T1: purified Dvl2PDZ domain polypeptide (human, UniProt O14641 248-364)
T1 construct: range 248-364; As used in the fluorescence polarization assay; also called DvlPDZ domain
T1 sequence (looked up): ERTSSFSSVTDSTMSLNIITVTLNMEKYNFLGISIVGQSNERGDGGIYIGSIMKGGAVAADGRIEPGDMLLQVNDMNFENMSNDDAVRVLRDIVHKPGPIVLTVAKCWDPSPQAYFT

T2: GST-Dvl2PDZ fusion protein (human, UniProt O14641 248-364)
T2 construct: range 248-364; Made with the pGEX E. coli expression system; also called GST-PDZ fusion protein; not shown: glutathione S-transferase (GST) encoded by plasmid pGEX
T2 sequence (looked up): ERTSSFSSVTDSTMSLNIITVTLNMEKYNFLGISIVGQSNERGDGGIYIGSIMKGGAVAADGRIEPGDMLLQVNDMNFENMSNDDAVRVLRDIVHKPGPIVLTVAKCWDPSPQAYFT


Each binder was assayed against T1, purified Dvl2PDZ domain polypeptide (assay: fluorescence polarization competition; 10 nM FAM-KWYGWL probe, 1 µM Dvl2PDZ).
Protocol: (§1) The binding affinities of synthetic peptides were also measured by Flourescence polarization assay. Serial dilution of purified Dvl2PDZ domain polypeptide (1-10 μM) was incubated with 10 nM probe peptide (FAM-KWYGWL-COOH) (SEQ ID NO: 169) in PBS, 0.1% Triton X100 as 30 μl volume in 96-well black HE96 plates (LJL Biosystem, Inc, Calif.), and incubated for 15 minutes at room temperature. Polarization measurements were performed in Analyst platereader (LJL Biosystems, Inc., Sunnyvale, Calif.). […] Competition experiments were performed by addition of serial dilution of the free peptides (0-500 μM) to solution with 10 nM probe and 1 μM Dvl2PDZ. The polarization was measured and IC50 values were derived as described above. Kᵢ values were calculated as described previously.

Ki | Binder
725 nM | Ac-KWYGWL-OH (synthetic peptide) [Peptide D1 (KWYGWL-COOH)]
4620 nM | Ac-GEIVLWSDIPG-NH2 (synthetic internal peptide ligand) [Peptide N3 (GEIVLWSDIPG)]
1210 nM | Ac-GWKDYGWIDG-NH2 (synthetic internal peptide ligand) [Peptide N2 (GWKDYGWIDG)]

What follows are binders tested against DvlPDZ domain (endogenous Dvl in the treated cells) (assay: cell-based or functional assay).

inhibition of Wnt3a-stimulated transcriptional activity (TopGlow assay, HEK293 cells) | Binder
50% | Ac-RQIKIWFQNRRMKWKKKWYGWL [Ac-… (DVLp_C)]

The binders below were run against T1, purified Dvl2PDZ domain polypeptide (assay: fluorescence polarization competition).
Protocol: as §1
Flourescence polarization assay was used to measure the affinity of two internal peptide ligands N2 and N3 to DvlPDZ domain.

fold lower affinity than D1 | Binder
6 fold | Ac-GEIVLWSDIPG-NH2 (synthetic internal peptide ligand) [Peptide N3 (GEIVLWSDIPG)]

What follows are binders tested against T2, GST-Dvl2PDZ fusion protein (assay: competition ELISA; GST-Dvl2PDZ (600 nM) binding to immobilized biotin-KWYGWL).
Protocol: Affinity assays-The binding affinities of peptides for Dvl2PDZ were determined as IC₅₀ values using a competition ELISA, as previously described. The IC₅₀ value was defined as the concentration of peptide that blocked 50% of PDZ domain binding to immobilized peptide. Assay plates were prepared by immobilizing an amino-terminally biotinylated peptide (KWYGWL_-COOH) (SEQ ID NO: 169) on Maxisorp immunoplates coated with neutravidin and blocked with BSA. A fixed concentration of GST-PDZ fusion protein (600 nM) in PBS, 0.5% BSA, 0.1% Tween 20 (PBT buffer) was preincubated for 1 h with serial dilutions of peptide and then transferred to the assay plates. After 15 min incubation, the plates were washed with PBS, 0.05% Tween 20, incubated with a mixture of anti-GST antibody (0.5 μg/m1) and horseradish peroxidase/rabbit anti-mouse IgG antibody conjugate (1:2000 dilution) in PBT buffer, washed again, and detected with TMB peroxidase substrate.

IC50 | Binder
1340 nM | Ac-KWYGWL-OH (synthetic peptide) [Peptide D1 (KWYGWL-COOH)]
930 nM | Ac-KWYGWF (synthetic peptide; D1 with Leu to Phe at position 0) [Peptide D2 (KWYGWF)]
243000 nM | Ac-KGFGML-OH (synthetic peptide)
140 nM | Ac-WKWYGWL (synthetic peptide; D1 with a Trp extension at position -6) [Peptide D3 (WKWYGWL)]
310 nM | Ac-WKWYGWF (synthetic peptide; D2 with a Trp extension at position -6) [Peptide D4 (WKWYGWF)]

The binders below were run against T2, GST-Dvl2PDZ fusion protein (assay: phage display selection on GST-Dvl2PDZ).
Protocol: The libraries were cycled through rounds of binding selection with a GST-Dvl2PDZ fusion protein coated on 96-well Maxisorp immunoplates as the capture target. Phage were propagated in E. coli XL1-blue with M13-KO7 helper phage and 10 μM IPTG. After four rounds of binding selection, individual phage clones were analyzed in a high-throughput phage ELISA, and positive clones were subjected to DNA sequence analysis.
We used decapeptide libraries fused to the C-terminus or N-terminus of the phage coat protein. The library contained NNK degenerate codons that encoded all 20 natural amino acids. The possible occurrence of amber stop codons in the degenerate codon also provided for the display of shorter peptides for the C-terminal library. Each library was cycled through four rounds of binding selection with immobilized GST-Dvl2PDZ fusion protein as the capture target.

binding result | Binder
binds | LWRVTDYGWVGGG [SEQ ID NO 58]
binds | DTAYKDYGWIGGG [SEQ ID NO 61]
binds | GWTWKDYGMIGGG [SEQ ID NO 49]
binds | TVVWHDYGWIGGG [SEQ ID NO 65]
binds | ELRWHDYGWIGGG [SEQ ID NO 57]
binds | LVPIFYGWIDGGG [SEQ ID NO 73]
binds | TVVWHDYGWIGGG [SEQ ID NO 50]
binds | EMVVTNYGWIGGG [SEQ ID NO 54]
binds | AWIVDYGWIDGGG [SEQ ID NO 76]
binds | EWSHVYYGWLGGG [SEQ ID NO 42]
binds | LVQLTDYGWIGGG [SEQ ID NO 60]
binds | GTQWKDYGWLGGG [SEQ ID NO 53]
binds | WVLVDYGVIGGG [SEQ ID NO 46]
binds | TEYGWMDYHP [SEQ ID NO 77]
binds | EKIVKDYGWIGGG [SEQ ID NO 51]
binds | ASLKYYGWLDGGG [SEQ ID NO 74]
binds | SIIYYGWLDGGG [SEQ ID NO 71]
binds | DMDFTGFGWLGGG [SEQ ID NO 55]
binds | DSLKYYGWIGGG [SEQ ID NO 68]
binds | TDYGWIDYPP [SEQ ID NO 72]

binding result | Binder
binds | ETSWKQYGWIGGG [SEQ ID NO 66]
binds | DIVLTNYGWIGGG [SEQ ID NO 43]
binds | ELRWHDYGWIGGG [SEQ ID NO 56]
binds | LWRVTDYGWVGGG [SEQ ID NO 64]
binds | TRFTNYGWLDGGG [SEQ ID NO 75]
binds | SEWKNYGYIGGG [SEQ ID NO 62]
binds | SEWKNYGYIGGG [SEQ ID NO 48]
binds | QTIWKDYGIIGGG [SEQ ID NO 45]
binds | QYRFIDYGWIGGG [SEQ ID NO 69]
binds | VWHYYGWLDGGG [SEQ ID NO 80]
binds | LVVKDYGWIGGG [SEQ ID NO 47]
binds | PYTWINYGWVGGG [SEQ ID NO 67]
binds | TVVWHDYGWIGGG [SEQ ID NO 44]
binds | TVVWHDYGWIGGG [SEQ ID NO 59]
binds | LILVNYGWIDGGG [SEQ ID NO 78]
binds | SAYKCYGWIDGGG [SEQ ID NO 70]
binds | QWVMTECGWIGGG [SEQ ID NO 52]
binds | WTIRDYGWLDGGG [SEQ ID NO 79]
binds | EWILTDYGVVGGG [SEQ ID NO 63]

These binders were tested against T1, purified Dvl2PDZ domain polypeptide (assay: fluorescence polarization, direct titration of Dvl2PDZ against 10 nM probe).
Protocol: as §1

Kd | Binder
536 nM | {FAM}-KWYGWL-OH (fluorescence polarization probe, 10 nM) [probe peptide (FAM-KWYGWL-COOH)]
